Reference: patent publication US20050037431A1

molecular target: Met receptor on cells (A549, MDA-MB-435, BxPC3) (UniProt P08581); test: cell-based or functional assay
Chain of UniProt P08581 (P08581 25-1390 limits assumed): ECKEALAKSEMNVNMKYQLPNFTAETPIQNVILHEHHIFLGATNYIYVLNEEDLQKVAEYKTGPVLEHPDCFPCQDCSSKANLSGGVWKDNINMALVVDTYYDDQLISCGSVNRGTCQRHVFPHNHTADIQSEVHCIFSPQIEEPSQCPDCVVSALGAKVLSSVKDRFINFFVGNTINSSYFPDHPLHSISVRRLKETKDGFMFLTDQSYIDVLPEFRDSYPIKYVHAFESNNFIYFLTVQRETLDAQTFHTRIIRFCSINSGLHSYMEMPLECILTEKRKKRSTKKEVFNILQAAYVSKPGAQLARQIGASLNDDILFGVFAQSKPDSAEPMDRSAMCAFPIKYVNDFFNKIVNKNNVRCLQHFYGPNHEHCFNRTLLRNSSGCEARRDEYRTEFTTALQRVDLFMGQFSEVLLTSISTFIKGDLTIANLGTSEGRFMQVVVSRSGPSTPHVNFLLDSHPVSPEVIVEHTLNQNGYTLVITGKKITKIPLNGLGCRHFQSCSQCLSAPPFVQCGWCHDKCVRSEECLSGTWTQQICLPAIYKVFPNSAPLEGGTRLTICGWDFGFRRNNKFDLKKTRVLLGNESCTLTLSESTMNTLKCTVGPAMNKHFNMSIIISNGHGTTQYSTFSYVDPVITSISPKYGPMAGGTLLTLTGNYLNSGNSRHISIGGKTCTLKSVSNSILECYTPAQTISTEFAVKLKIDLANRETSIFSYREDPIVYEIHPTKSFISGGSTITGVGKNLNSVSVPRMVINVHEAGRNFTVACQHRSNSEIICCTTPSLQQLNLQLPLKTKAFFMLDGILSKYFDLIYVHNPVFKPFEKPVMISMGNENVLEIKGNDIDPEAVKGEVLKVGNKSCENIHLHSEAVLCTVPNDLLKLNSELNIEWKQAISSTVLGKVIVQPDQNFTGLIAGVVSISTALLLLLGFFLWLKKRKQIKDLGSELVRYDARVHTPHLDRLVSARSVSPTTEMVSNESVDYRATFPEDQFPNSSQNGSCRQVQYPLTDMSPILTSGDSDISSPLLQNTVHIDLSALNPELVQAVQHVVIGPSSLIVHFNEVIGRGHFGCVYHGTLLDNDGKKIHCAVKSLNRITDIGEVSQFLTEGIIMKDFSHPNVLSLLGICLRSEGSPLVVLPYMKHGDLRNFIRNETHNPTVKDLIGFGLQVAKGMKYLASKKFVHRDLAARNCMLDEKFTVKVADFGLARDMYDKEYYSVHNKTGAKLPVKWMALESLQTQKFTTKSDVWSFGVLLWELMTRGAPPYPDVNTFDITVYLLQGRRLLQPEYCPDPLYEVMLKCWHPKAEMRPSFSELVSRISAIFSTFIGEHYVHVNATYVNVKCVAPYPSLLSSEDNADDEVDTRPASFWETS

Substance | migration of MDA-MB435 cells (transwell, 1 nM), percent of wildtype HGF (% of wildtype activity)
HGF G621A (two-chain full length HGF mutant) (from UniProt P14210 32-494; P14210 495-728) (ligand) | 60 to 80
HGF R514A (two-chain full length HGF mutant) (from UniProt P14210 32-494; P14210 495-728) (ligand) | 60 to 80
HGF T620A (two-chain full length HGF mutant) (from UniProt P14210 32-494; P14210 495-728) (ligand) | 60 to 80
HGF Y619A (two-chain full length HGF mutant) (from UniProt P14210 32-494; P14210 495-728) (ligand) | 60 to 80

Further lines, results first:

migration of MDA-MB435 cells (transwell, 1 nM), percent of wildtype HGF (% of wildtype activity) | Substance
60 to 80 | HGF I699A (two-chain full length HGF mutant) (from UniProt P14210 32-494; P14210 495-728) (ligand)
60 to 80 | HGF N701A (two-chain full length HGF mutant) (from UniProt P14210 32-494; P14210 495-728) (ligand)
60 to 80 | HGF P537A (two-chain full length HGF mutant) (from UniProt P14210 32-494; P14210 495-728) (ligand)
